The text below walks through data of PMC3828522.

The assay has as its target biotin-YY1 spacer peptide (human) (UniProt P25490). In words: SPR.

Chain of biotin-YY1 spacer peptide (human) (P25490 199-228): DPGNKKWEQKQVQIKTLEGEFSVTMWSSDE
Chain of SFMBT2 4MBT domain, human (domain or fragment) (Q5VUG0 whole entry, the tested form may be a part): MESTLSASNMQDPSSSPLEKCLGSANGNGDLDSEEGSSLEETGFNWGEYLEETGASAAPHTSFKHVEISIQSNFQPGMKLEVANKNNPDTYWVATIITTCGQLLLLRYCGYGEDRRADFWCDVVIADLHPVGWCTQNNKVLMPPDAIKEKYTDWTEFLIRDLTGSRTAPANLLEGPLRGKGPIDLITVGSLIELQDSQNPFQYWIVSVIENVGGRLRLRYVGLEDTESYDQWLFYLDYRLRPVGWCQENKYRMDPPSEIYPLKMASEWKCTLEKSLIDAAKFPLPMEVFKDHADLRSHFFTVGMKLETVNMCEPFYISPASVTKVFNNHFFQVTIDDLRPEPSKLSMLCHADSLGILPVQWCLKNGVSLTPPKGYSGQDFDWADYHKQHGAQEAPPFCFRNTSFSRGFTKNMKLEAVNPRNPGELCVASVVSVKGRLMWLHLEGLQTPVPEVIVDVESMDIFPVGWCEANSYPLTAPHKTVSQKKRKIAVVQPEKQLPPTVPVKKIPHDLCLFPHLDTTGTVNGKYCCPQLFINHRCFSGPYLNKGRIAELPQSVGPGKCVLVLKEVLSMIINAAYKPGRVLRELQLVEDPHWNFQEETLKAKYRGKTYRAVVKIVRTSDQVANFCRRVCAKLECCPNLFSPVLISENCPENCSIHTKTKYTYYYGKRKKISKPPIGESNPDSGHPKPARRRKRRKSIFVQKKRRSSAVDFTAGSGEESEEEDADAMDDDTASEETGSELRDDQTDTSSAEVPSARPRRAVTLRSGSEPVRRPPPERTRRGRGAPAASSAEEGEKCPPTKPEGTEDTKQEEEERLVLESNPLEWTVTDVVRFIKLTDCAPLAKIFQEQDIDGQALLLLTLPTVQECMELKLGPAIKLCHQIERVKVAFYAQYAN

Substance “SFMBT2 4MBT domain, human (domain or fragment)” came in with a fold lower affinity than L3MBTL2 and MBTD1 of 2 fold; a fold weaker affinity than the Drosophila complex of 50 fold.
